Experimental data: publication PMC4655838, “Versatility in phospho-dependent molecular recognition of the XRCC1 and XRCC4 DNA-damage scaffolds by aprataxin-family FHA domains” (DNA Repair, 2015)
Square brackets hold non-standard residues; d marks the D form. Ends that are not written are not given here. pT = C[C@@H](OP(=O)(O)O)[C@H](N)C(=O)O; pS = N[C@@H](COP(=O)(O)O)C(=O)O

Key:
[1] = biological target: aprataxin FHA domain (residues 1-105); assay: ITC; peptide injected (30 x 10 ul) into FHA domain in the cell; 22 °C; 50 mM HEPES pH 7.5, 150 mM NaCl, 5 mM β-mercaptoethanol; XRCC1 peptides 1 mM into 100 μM protein, XRCC4 peptides 300 μM into 30 μM protein; single-site binding model
[2] = biological target: aprataxin FHA domain K38A (residues 1-105); assay: as above
[3] = biological target: aprataxin FHA domain (residues 1-105); assay: NMR titration; unlabelled XRCC1 peptide added to 92 μM 15N-labelled aprataxin FHA domain up to 1:4; 22 °C; 20 mM Na acetate pH 5.8, 50 mM NaCl, 2 mM DTT; SOFAST-HMQC; apparent Kd, mean of the fits for D37, V45, Q46, V61 and V63

B1: XRCC1 515-529 peptide phosphorylated on Ser518 and Thr519 (peptide)
peptide: YAGSTDENTDSEEHQ
HELM: PEPTIDE1{Y.A.G.[O=C([C@H](COP(=O)(O)O)N[*:1])[*:2]].[C[C@@H](OP(=O)(O)O)[C@H](N[*:1])C(=O)[*:2]].D.E.N.T.D.S.E.E.H.Q.[am]}$$$$V2.0; N-terminus assumed
SMILES: C[C@H](NC(=O)[C@@H](N)Cc1ccc(O)cc1)C(=O)NCC(=O)N[C@@H](COP(=O)(O)O)C(=O)N[C@H](C(=O)N[C@@H](CC(=O)O)C(=O)N[C@@H](CCC(=O)O)C(=O)N[C@@H](CC(N)=O)C(=O)N[C@H](C(=O)N[C@@H](CC(=O)O)C(=O)N[C@@H](CO)C(=O)N[C@@H](CCC(=O)O)C(=O)N[C@@H](CCC(=O)O)C(=O)N[C@@H](Cc1c[nH]cn1)C(=O)N[C@@H](CCC(N)=O)C(N)=O)[C@@H](C)O)[C@@H](C)OP(=O)(O)O
- fold increase in binding over the mono-phosphorylated peptide [1]: 11 fold
- fold decrease in binding relative to the wild-type [2]: 8.5 fold
- Kd [3]: 2 µM

B2: XRCC4 229-237 peptide phosphorylated on Ser232 and Thr233 (peptide)
peptide: YDESTDEES
HELM: PEPTIDE1{Y.D.E.[O=C([C@H](COP(=O)(O)O)N[*:1])[*:2]].[C[C@@H](OP(=O)(O)O)[C@H](N[*:1])C(=O)[*:2]].D.E.E.S.[am]}$$$$V2.0; N-terminus assumed
SMILES: C[C@@H](OP(=O)(O)O)[C@H](NC(=O)[C@H](COP(=O)(O)O)NC(=O)[C@H](CCC(=O)O)NC(=O)[C@H](CC(=O)O)NC(=O)[C@@H](N)Cc1ccc(O)cc1)C(=O)N[C@@H](CC(=O)O)C(=O)N[C@@H](CCC(=O)O)C(=O)N[C@@H](CCC(=O)O)C(=O)N[C@@H](CO)C(N)=O
- fold increase in binding over the mono-phosphorylated peptide [1]: 8 fold
- fold decrease in binding relative to the wild-type [2]: 7.6 fold

B3: XRCC1 515-529 peptide phosphorylated on Thr519 (peptide)
peptide: YAGSTDENTDSEEHQ
HELM: PEPTIDE1{Y.A.G.S.[C[C@@H](OP(=O)(O)O)[C@H](N[*:1])C(=O)[*:2]].D.E.N.T.D.S.E.E.H.Q.[am]}$$$$V2.0; N-terminus assumed
SMILES: C[C@H](NC(=O)[C@@H](N)Cc1ccc(O)cc1)C(=O)NCC(=O)N[C@@H](CO)C(=O)N[C@H](C(=O)N[C@@H](CC(=O)O)C(=O)N[C@@H](CCC(=O)O)C(=O)N[C@@H](CC(N)=O)C(=O)N[C@H](C(=O)N[C@@H](CC(=O)O)C(=O)N[C@@H](CO)C(=O)N[C@@H](CCC(=O)O)C(=O)N[C@@H](CCC(=O)O)C(=O)N[C@@H](Cc1c[nH]cn1)C(=O)N[C@@H](CCC(N)=O)C(N)=O)[C@@H](C)O)[C@@H](C)OP(=O)(O)O
- fold decrease in binding relative to the wild-type [2]: 2.7 fold
- Kd [3]: 7 µM

B4: XRCC4 229-237 peptide phosphorylated on Thr233 (peptide)
peptide: YDESTDEES
HELM: PEPTIDE1{Y.D.E.S.[C[C@@H](OP(=O)(O)O)[C@H](N[*:1])C(=O)[*:2]].D.E.E.S.[am]}$$$$V2.0; N-terminus assumed
SMILES: C[C@@H](OP(=O)(O)O)[C@H](NC(=O)[C@H](CO)NC(=O)[C@H](CCC(=O)O)NC(=O)[C@H](CC(=O)O)NC(=O)[C@@H](N)Cc1ccc(O)cc1)C(=O)N[C@@H](CC(=O)O)C(=O)N[C@@H](CCC(=O)O)C(=O)N[C@@H](CCC(=O)O)C(=O)N[C@@H](CO)C(N)=O
- fold tighter binding than the XRCC1 pThr519 peptide [1]: 8 fold
- fold decrease in binding relative to the wild-type [2]: 3.2 fold

B5: XRCC4 229-237 peptide phosphorylated on Ser232, Thr233 and Ser237 (peptide)
peptide: YDE[pS][pT]DEE[pS]-NH2
modifications: N-terminus assumed
SMILES: C[C@@H](OP(=O)(O)O)[C@H](NC(=O)[C@H](COP(=O)(O)O)NC(=O)[C@H](CCC(=O)O)NC(=O)[C@H](CC(=O)O)NC(=O)[C@@H](N)Cc1ccc(O)cc1)C(=O)N[C@@H](CC(=O)O)C(=O)N[C@@H](CCC(=O)O)C(=O)N[C@@H](CCC(=O)O)C(=O)N[C@@H](COP(=O)(O)O)C(N)=O
- fold decrease in binding relative to the wild-type [2]: 9.3 fold

B6: XRCC1 515-529 peptide phosphorylated on Ser518, Thr519 and Thr523 (peptide)
peptide: YAG[pS][pT]DEN[pT]DSEEHQ-NH2
modifications: N-terminus assumed
SMILES: C[C@H](NC(=O)[C@@H](N)Cc1ccc(O)cc1)C(=O)NCC(=O)N[C@@H](COP(=O)(O)O)C(=O)N[C@H](C(=O)N[C@@H](CC(=O)O)C(=O)N[C@@H](CCC(=O)O)C(=O)N[C@@H](CC(N)=O)C(=O)N[C@H](C(=O)N[C@@H](CC(=O)O)C(=O)N[C@@H](CO)C(=O)N[C@@H](CCC(=O)O)C(=O)N[C@@H](CCC(=O)O)C(=O)N[C@@H](Cc1c[nH]cn1)C(=O)N[C@@H](CCC(N)=O)C(N)=O)[C@@H](C)OP(=O)(O)O)[C@@H](C)OP(=O)(O)O
- fold increase in binding over the di-phosphorylated peptide [1]: 3 fold
- fold preference over the mono-phosphorylated (pT233) XRCC4 peptide [1]: 5 fold
- fold decrease in binding relative to the wild-type [2]: 8.8 fold
- Kd [3]: < 1 µM

B7: XRCC1 515-529 peptide phosphorylated solely on Thr523 (peptide)
peptide: YAGSTDENTDSEEHQ
HELM: PEPTIDE1{Y.A.G.S.T.D.E.N.[C[C@@H](OP(=O)(O)O)[C@H](N[*:1])C(=O)[*:2]].D.S.E.E.H.Q.[am]}$$$$V2.0; N-terminus assumed
SMILES: C[C@H](NC(=O)[C@@H](N)Cc1ccc(O)cc1)C(=O)NCC(=O)N[C@@H](CO)C(=O)N[C@H](C(=O)N[C@@H](CC(=O)O)C(=O)N[C@@H](CCC(=O)O)C(=O)N[C@@H](CC(N)=O)C(=O)N[C@H](C(=O)N[C@@H](CC(=O)O)C(=O)N[C@@H](CO)C(=O)N[C@@H](CCC(=O)O)C(=O)N[C@@H](CCC(=O)O)C(=O)N[C@@H](Cc1c[nH]cn1)C(=O)N[C@@H](CCC(N)=O)C(N)=O)[C@@H](C)OP(=O)(O)O)[C@@H](C)O
- Kd [3]: 7 µM
